{"source": "patent US20120207760A1", "key": {"[1]": {"molecular_target": "M2 protein of influenza A/Wisconsin/67/05 (H3N2), on inactivated whole virions (Influenza A virus A/Wisconsin/67/2005 (H3N2))", "test": "ELISA, positive control antibody on inactivated whole virions"}, "[2]": {"molecular_target": "23 amino acid synthetic M2e peptide of A/Fort Worth/1/50 (influenza A virus A/Fort Worth/1/50 (H1N1))", "test": "ELISA on the 23mer M2e peptide (FIG. 14b)"}}, "data": [{"substance": "TCN-032 (8I10) (antibody)", "values": [{"measurement": "OD450", "setting": "[1]", "result": 3.62, "unit": "OD450"}]}, {"substance": "chimeric mouse V-region/human IgG1 kappa 14C2 antibody", "values": [{"measurement": "EC50", "setting": "[2]", "result": 0.01, "unit": "µg/mL"}]}]}
